How the values were obtained:
[1] = test system: histone H3 Tyr99-phosphorylation (ACK1); experiment: Histone H3 Tyr99-phosphorylation in HEK293 cells (pY99-H3 immunoprecipitation / H3 immunoblot); format: cell-based; settings: HEK293 cells treated with EGF ligand
Method: FIGS. 3A-3E show Ack1 phosphoryltes H3 at Tyr99 residue. […] (FIG. 3B) HEK293 cells co-expressing Myc-tagged Ack1 (WT) or KD mutant ACK1 and FLAG-tagged H3 or Y99F mutant […] were serum-starved (24h) and lysates were immunoprecipitated with pY99-H3 antibodies followed by immunoblotting with FLAG antibody (top panel). (FIG. 3C) HEK293 cells were treated with EGF ligand for indicated time points. Equal amounts of lysates were immunoprecipitated pY99-H3 antibodies followed by with immunoblotting with H3 antibody (top panel). (FIG. 3D) HEK293 cells were treated with ACK1 inhibitor, AIM-100 (5 uM overnight) and/or EGF ligand 20 min. Equal amounts of lysates were immunoprecipitated pY99-H3 antibodies followed by with immunoblotting with H3 antibody (top panel). […] (FIG. 3E) HEK293 cells were treated with increasing concentrations of AIM-100 (1, 2, 3 and 5 μM). Equal amounts of lysates were immunoprecipitated pY99-H3 antibodies followed by with immunoblotting with H3 antibody (top panel).
The Tyrosine99 or Y99 site in H3 protein is evolutionarily conserved (FIG. 3A). To examine whether H3 is ACK1 kinase substrate, HEK293 cells were co-transfected with HA-tagged ACK1 and FLAG-tagged H3 or FLAG-tagged Y99F mutant H3 expressing constructs. ACK I specifically phosphorylated H3 protein, but not the Y99F mutant protein (FIG. 3B). […]

ACK1 = ACK1 activation (phosphorylation) in JAR cells, immunoblotting; format: cell-based, human; settings: 10 min of treatment
Method: (§1) FIGS. 5A-5D show ACK1 deposits pY99-H3 epigenetic marks in SLC6A4 promoter and intron 2. (FIG. 5A) Lysates prepared from JAR cells treated with EGF ligand were subjected to immunoblotting with indicated antibodies. (FIG. 5B) Lysates prepared from JAR cells treated with EGF or AIM-100 were subjected to immunoblotting with indicated antibodies. (FIG. 5C) Total RNA was prepared from JAR cells untreated or treated with EGF ligand followed by quantitative RT-PCR using SLC6A4 and actin primers. The ratio of SLC6A4 to actin is shown. (FIG. 5D) JAR cells were treated with EGF ligand and ChIP was performed using pY99-H3 antibodies followed by quantitative PCR using primers corresponding to intron 2 (VNTR).
(§2) JAR cells are human placenta-derived epithelial cells that express SLC6A4 or SERT. Applicant first assessed presence of ACK1 signaling in JAR cells by treating these cells with EGF ligand. […] ACK1 activation was also reflected in histone H3 Tyr99-phosphorylation (FIG. SA, 2nd panel).

[2] = test system: pY99-H3 marks at SLC6A4 promoter (5-HTTLPR) and intron 2 (VNTR); experiment: ChIP with pY99-H3 antibodies and real time PCR at SLC6A4 gene in JAR cells; format: cell-based, human; settings: EGF treatment
Method: as §1
Applicant hypothesized that ACK1 deposits pY99-H3 epigenetic marks in promoter (5-HTTLPR) and intron 2 (VNTR) of SLC6A4 gene to regulate its transcription. To test this hypothesis, applicant performed chromatin immunoprecipitation (ChIP) with pY99-H3 antibodies followed by real time PCR for primers corresponding to promoter (5-HTTLPR) and intron 2 (VNTR) of SLC6A4 gene.

[3] = test system: histone H3 Tyr99-phosphorylation (ACK1); experiment: Histone H3 Tyr99-phosphorylation in JAR cells (immunoblotting); format: cell-based, human; settings: EGF alone
Method: as §1, §2
To validate critical role of ACK1 in histone H3 Tyr99-phosphoryation, JAR cells were treated with EGF or EGF+AIM-100.

SLC6A4 mRNA = SLC6A4 mRNA expression (real time RT-PCR); format: cell-based, human; settings: JAR cells treated with EGF ligand
Method: The ratio of SLC6A4 to actin is shown. (FIG. 5D) JAR cells were treated with EGF ligand and ChIP was performed using pY99-H3 antibodies followed by quantitative PCR using primers corresponding to intron 2 (VNTR). […]
Applicant also identified for the first time that human and mouse serotonin transporter (SLC6A4 or SERT or 5-HTT) gene expression is regulated by ACK1. A novel mechanism was identified that is operational in SLC6A4 gene regulation. ACK1 deposits pY99-H3 epigenetic marks in promoter (5-HTTLPR) and intron 2 (VNTR) of SLC6A4 gene to regulate its transcription. […] Without being bound by theory, applicant believes that expression of Gabra6, Slc6a2, Slc6a4, Slc6a5 and Oxt genes as well as genes shown in Table 2 are also regulated by ACK1/pY99-H3 epigenetic activity/signaling.

B1: EGF: EGF ligand used to activate ACK1 (protein, UniProt P01133 23-1207, looked up)
Pro-epidermal growth factor: PQHWSCPEGTLAGNGNSTCVGPAPFLIFSHGNSIFRIDTEGTNYEQLVVDAGVSVIMDFHYNEKRIYWVDLERQLLQRVFLNGSRQERVCNIEKNVSGMAINWINEEVIWSNQQEGIITVTDMKGNNSHILLSALKYPANVAVDPVERFIFWSSEVAGSLYRADLDGVGVKALLETSEKITAVSLDVLDKRLFWIQYNREGSNSLICSCDYDGGSVHISKHPTQHNLFAMSLFGDRIFYSTWKMKTIWIANKHTGKDMVRINLHSSFVPLGELKVVHPLAQPKAEDDTWEPEQKLCKLRKGNCSSTVCGQDLQSHLCMCAEGYALSRDRKYCEDVNECAFWNHGCTLGCKNTPGSYYCTCPVGFVLLPDGKRCHQLVSCPRNVSECSHDCVLTSEGPLCFCPEGSVLERDGKTCSGCSSPDNGGCSQLCVPLSPVSWECDCFPGYDLQLDEKSCAASGPQPFLLFANSQDIRHMHFDGTDYGTLLSQQMGMVYALDHDPVENKIYFAHTALKWIERANMDGSQRERLIEEGVDVPEGLAVDWIGRRFYWTDRGKSLIGRSDLNGKRSKIITKENISQPRGIAVHPMAKRLFWTDTGINPRIESSSLQGLGRLVIASSDLIWPSGITIDFLTDKLYWCDAKQSVIEMANLDGSKRRRLTQNDVGHPFAVAVFEDYVWFSDWAMPSVMRVNKRTGKDRVRLQGSMLKPSSLVVVHPLAKPGADPCLYQNGGCEHICKKRLGTAWCSCREGFMKASDGKTCLALDGHQLLAGGEVDLKNQVTPLDILSKTRVSEDNITESQHMLVAEIMVSDQDDCAPVGCSMYARCISEGEDATCQCLKGFAGDGKLCSDIDECEMGVPVCPPASSKCINTEGGYVCRCSEGYQGDGIHCLDIDECQLGEHSCGENASCTNTEGGYTCMCAGRLSEPGLICPDSTPPPHLREDDHHYSVRNSDSECPLSHDGYCLHDGVCMYIEALDKYACNCVVGYIGERCQYRDLKWWELRHAGHGQQQKVIVVAVCVVVLVMLLLLSLWGAHYYRTQKLLSKNPKNPYEESSRDVRSRRPADTEDGMSSCPQPWFVVIKEHQDLKNGGQPVAGEDGQAADGSMQPTSWRQEPQLCGMGTEQGCWIPVSSDKGSCPQVMERSFHMPSYGTQTLEGGVEKPHSLLSANPLWQQRALDPPHQMELTQ
modifications: Pro-epidermal growth factor
- endogenous H3 Tyr99-phosphorylation [1]: significant upregulation in endogenous H3 Tyr99-phosphorylation
- ACK1 activation (phosphorylation) (ACK1): robust ACK1 activation
- deposition of pY99-H3 marks at promoter (5-HTTLPR) and intron 2 (VNTR) of SLC6A4 gene [2]: significant increase in deposition of pY99-H3 marks
- histone H3 Tyr99-phosphorylation [3]: significant upregulation of histone H3 Tyr99-phosphoryation
- SLC6A4 mRNA levels (SLC6A4 mRNA): significant increase in SLC64A mRNA levels
